Measurements from US6869778.
Values joined by “and” are separate entries in the source; they are usually repeats but may differ in a detail not shown here. Identical values can stand only once.

What was measured:
[1] = biological target: fibrinogen
[2] = biological target: soluble fibrin monomers (DESAFIB)
[3] = biological target: stimulatory thirteen amino acid peptide P368
[4] = biological target: T1, lys-plasminogen, P00747
T1 chain: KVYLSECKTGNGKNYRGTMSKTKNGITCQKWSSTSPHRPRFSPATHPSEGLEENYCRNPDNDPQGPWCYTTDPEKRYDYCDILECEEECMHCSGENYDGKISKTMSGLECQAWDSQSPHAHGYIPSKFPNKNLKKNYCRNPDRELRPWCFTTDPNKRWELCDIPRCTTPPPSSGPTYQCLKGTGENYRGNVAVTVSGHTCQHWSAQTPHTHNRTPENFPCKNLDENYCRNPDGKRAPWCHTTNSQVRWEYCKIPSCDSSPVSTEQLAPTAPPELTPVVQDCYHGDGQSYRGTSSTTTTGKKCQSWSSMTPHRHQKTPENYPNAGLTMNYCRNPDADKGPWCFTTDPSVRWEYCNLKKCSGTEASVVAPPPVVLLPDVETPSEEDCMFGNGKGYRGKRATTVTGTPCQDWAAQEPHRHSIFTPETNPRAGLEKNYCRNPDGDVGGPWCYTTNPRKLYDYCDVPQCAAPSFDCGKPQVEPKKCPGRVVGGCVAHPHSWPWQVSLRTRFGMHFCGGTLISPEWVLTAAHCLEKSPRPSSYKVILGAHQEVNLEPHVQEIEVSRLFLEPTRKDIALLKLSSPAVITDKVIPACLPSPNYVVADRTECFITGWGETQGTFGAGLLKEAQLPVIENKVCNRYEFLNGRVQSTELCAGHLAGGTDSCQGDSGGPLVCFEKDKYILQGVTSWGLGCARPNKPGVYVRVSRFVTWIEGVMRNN

B1: t-PA/R275E, single-chain form (protein)
chain: SYQVICRDEKTQMIYQQHQSWLRPVLRSNRVEYCWCNSGRAQCHSVPVKSCSEPRCFNGGTCQQALYFSDFVCQCPEGFAGKCCEIDTRATCYEDQGISYRGTWSTAESGAECTNWNSSALAQKPYSGRRPDAIRLGLGNHNYCRNPDRDSKPWCYVFKAGKYSSEFCSTPACSEGNSDCYFGNGSAYRGTHSLTESGASCLPWNSMILIGKVYTAQNPSAQALGLGKHNYCRNPDGDAKPWCHVLKNRRLTWEYCDVPSCSTCGLRQYSQPQFEIKGGLFADIASHPWQAAIFAKHRRSPGERFLCGGILISSCWILSAAHCFQERFPPHHLTVILGRTYRVVPGEEEQKFEVEKYIVHKEFDDDTYDNDIALLQLKSDSSRCAQESSVVRTVCLPPADLQLPDWTECELSGYGKHEALSPFYSERLKEAHVRLYPSSRCTSQHLLNRTVTDNMLCAGDTRSGGPQANLHDACQGDSGGPLVCLNDGRMTLVGIISWGLGCGQKDVPGVYTKVTNYLDWIRDNMRP
With B1 the “stimulation of plasminogen activation by co-factor (indirect chromogenic assay)” value (from here on “stimulation of plasminogen activation”) [1] was “stimulated strongly”, the Fold stimulation of kcat/Km by fibrin [2] was 6300 fold and 3800 fold and the “fibrin selectivity factor (specific activity in the presence of fibrin over that in the presence of fibrinogen)” value [2] was 1.0 for single chain t-PA/R275E. The “stimulation of plasminogen activation” value [2] was “stimulated strongly”, the “stimulation of plasminogen activation” value [3] was “moderately” and the Kcat of plasminogen activation in the absence of a cofactor [4] was 0.014 s⁻¹ and 0.038 s⁻¹. For the same protein, the Kcat of plasminogen activation in the presence of fibrin [4] was 0.16 s⁻¹ and 0.1 s⁻¹, the Kcat/Km of plasminogen activation in the absence of a cofactor [4] was 1500 M⁻¹ s⁻¹ and 1300 M⁻¹ s⁻¹ and the Kcat/Km of plasminogen activation in the presence of fibrin [4] was 9.4e+06 M⁻¹ s⁻¹ and 5e+06 M⁻¹ s⁻¹. For the same protein, the Km of plasminogen activation in the presence of fibrin [4] was 0.017 µM and 0.02 µM.

B2: t-PA/R275E,H417D, single-chain form (protein)
chain: SYQVICRDEKTQMIYQQHQSWLRPVLRSNRVEYCWCNSGRAQCHSVPVKSCSEPRCFNGGTCQQALYFSDFVCQCPEGFAGKCCEIDTRATCYEDQGISYRGTWSTAESGAECTNWNSSALAQKPYSGRRPDAIRLGLGNHNYCRNPDRDSKPWCYVFKAGKYSSEFCSTPACSEGNSDCYFGNGSAYRGTHSLTESGASCLPWNSMILIGKVYTAQNPSAQALGLGKHNYCRNPDGDAKPWCHVLKNRRLTWEYCDVPSCSTCGLRQYSQPQFEIKGGLFADIASHPWQAAIFAKHRRSPGERFLCGGILISSCWILSAAHCFQERFPPHHLTVILGRTYRVVPGEEEQKFEVEKYIVHKEFDDDTYDNDIALLQLKSDSSRCAQESSVVRTVCLPPADLQLPDWTECELSGYGKDEALSPFYSERLKEAHVRLYPSSRCTSQHLLNRTVTDNMLCAGDTRSGGPQANLHDACQGDSGGPLVCLNDGRMTLVGIISWGLGCGQKDVPGVYTKVTNYLDWIRDNMRP
B2 showed a Fold stimulation of kcat/Km by fibrin [2] of 48200 fold, a Kcat of plasminogen activation in the absence of a cofactor [4] of 0.001 s⁻¹ and a Kcat of plasminogen activation in the presence of fibrin [4] of 0.23 s⁻¹. It also gave a Kcat/Km of plasminogen activation in the absence of a cofactor [4] of 110 M⁻¹ s⁻¹, a Kcat/Km of plasminogen activation in the presence of fibrin [4] of 5.3e+06 M⁻¹ s⁻¹ and a Km of plasminogen activation in the absence of a cofactor [4] of 9.4 µM. For the same protein, the Km of plasminogen activation in the presence of fibrin [4] was 0.043 µM and the “fold reduction of activity toward plasminogen without co-factor, against single chain t-PA/R275E” value [4] was “reduced by a factor of approximately 14 or 6, respectively”.

B3: t-PA/R275E,H417E, single-chain form (protein)
chain: SYQVICRDEKTQMIYQQHQSWLRPVLRSNRVEYCWCNSGRAQCHSVPVKSCSEPRCFNGGTCQQALYFSDFVCQCPEGFAGKCCEIDTRATCYEDQGISYRGTWSTAESGAECTNWNSSALAQKPYSGRRPDAIRLGLGNHNYCRNPDRDSKPWCYVFKAGKYSSEFCSTPACSEGNSDCYFGNGSAYRGTHSLTESGASCLPWNSMILIGKVYTAQNPSAQALGLGKHNYCRNPDGDAKPWCHVLKNRRLTWEYCDVPSCSTCGLRQYSQPQFEIKGGLFADIASHPWQAAIFAKHRRSPGERFLCGGILISSCWILSAAHCFQERFPPHHLTVILGRTYRVVPGEEEQKFEVEKYIVHKEFDDDTYDNDIALLQLKSDSSRCAQESSVVRTVCLPPADLQLPDWTECELSGYGKEEALSPFYSERLKEAHVRLYPSSRCTSQHLLNRTVTDNMLCAGDTRSGGPQANLHDACQGDSGGPLVCLNDGRMTLVGIISWGLGCGQKDVPGVYTKVTNYLDWIRDNMRP
Work on B3 yielded a Fold stimulation of kcat/Km by fibrin [2] of 25400 fold, a Kcat of plasminogen activation in the absence of a cofactor [4] of 0.002 s⁻¹ and a Kcat of plasminogen activation in the presence of fibrin [4] of 0.17 s⁻¹. For the same protein, the Kcat/Km of plasminogen activation in the absence of a cofactor [4] was 240 M⁻¹ s⁻¹, the Kcat/Km of plasminogen activation in the presence of fibrin [4] was 6.1e+06 M⁻¹ s⁻¹ and the Km of plasminogen activation in the absence of a cofactor [4] was 8.5 µM. For the same protein, the Km of plasminogen activation in the presence of fibrin [4] was 0.028 µM and the “fold reduction of activity toward plasminogen without co-factor, against single chain t-PA/R275E” value [4] was “reduced by a factor of approximately 14 or 6, respectively”.

B4: wild type human t-PA, two-chain form (protein)
chain 1: SYQVICRDEKTQMIYQQHQSWLRPVLRSNRVEYCWCNSGRAQCHSVPVKSCSEPRCFNGGTCQQALYFSDFVCQCPEGFAGKCCEIDTRATCYEDQGISYRGTWSTAESGAECTNWNSSALAQKPYSGRRPDAIRLGLGNHNYCRNPDRDSKPWCYVFKAGKYSSEFCSTPACSEGNSDCYFGNGSAYRGTHSLTESGASCLPWNSMILIGKVYTAQNPSAQALGLGKHNYCRNPDGDAKPWCHVLKNRRLTWEYCDVPSCSTCGLRQYSQPQFR
chain 2: IKGGLFADIASHPWQAAIFAKHRRSPGERFLCGGILISSCWILSAAHCFQERFPPHHLTVILGRTYRVVPGEEEQKFEVEKYIVHKEFDDDTYDNDIALLQLKSDSSRCAQESSVVRTVCLPPADLQLPDWTECELSGYGKHEALSPFYSERLKEAHVRLYPSSRCTSQHLLNRTVTDNMLCAGDTRSGGPQANLHDACQGDSGGPLVCLNDGRMTLVGIISWGLGCGQKDVPGVYTKVTNYLDWIRDNMRP
For B4, the “stimulation of plasminogen activation” value [1] was “strongly stimulated”, the Fold stimulation of kcat/Km by fibrin [2] was 460 fold and 250 fold and the “fibrin selectivity factor (specific activity in the presence of fibrin over that in the presence of fibrinogen)” value [2] was 1.5 for two-chain t-PA. The “stimulation of plasminogen activation” value [2] was “strongly stimulated”, the “stimulation of plasminogen activation” value [3] was “strongly stimulated” and the Kcat of plasminogen activation in the absence of a cofactor [4] was 0.093 s⁻¹ and 0.16 s⁻¹. The Kcat of plasminogen activation in the presence of fibrin [4] was 0.11 s⁻¹ and 0.08 s⁻¹, the Kcat/Km of plasminogen activation in the absence of a cofactor [4] was 14000 M⁻¹ s⁻¹ and 16000 M⁻¹ s⁻¹ and the Kcat/Km of plasminogen activation in the presence of fibrin [4] was 6.5e+06 M⁻¹ s⁻¹ and 4e+06 M⁻¹ s⁻¹. The Km of plasminogen activation in the absence of a cofactor [4] was 6.7 µM and 10 µM and the Km of plasminogen activation in the presence of fibrin [4] was 0.017 µM and 0.02 µM.

B5: t-PA/H417D, two-chain form (protein)
chain 1: SYQVICRDEKTQMIYQQHQSWLRPVLRSNRVEYCWCNSGRAQCHSVPVKSCSEPRCFNGGTCQQALYFSDFVCQCPEGFAGKCCEIDTRATCYEDQGISYRGTWSTAESGAECTNWNSSALAQKPYSGRRPDAIRLGLGNHNYCRNPDRDSKPWCYVFKAGKYSSEFCSTPACSEGNSDCYFGNGSAYRGTHSLTESGASCLPWNSMILIGKVYTAQNPSAQALGLGKHNYCRNPDGDAKPWCHVLKNRRLTWEYCDVPSCSTCGLRQYSQPQFR
chain 2: IKGGLFADIASHPWQAAIFAKHRRSPGERFLCGGILISSCWILSAAHCFQERFPPHHLTVILGRTYRVVPGEEEQKFEVEKYIVHKEFDDDTYDNDIALLQLKSDSSRCAQESSVVRTVCLPPADLQLPDWTECELSGYGKDEALSPFYSERLKEAHVRLYPSSRCTSQHLLNRTVTDNMLCAGDTRSGGPQANLHDACQGDSGGPLVCLNDGRMTLVGIISWGLGCGQKDVPGVYTKVTNYLDWIRDNMRP
Work on B5 yielded a Fold stimulation of kcat/Km by fibrin [2] of 290 fold, a Kcat of plasminogen activation in the absence of a cofactor [4] of 0.11 s⁻¹ and a Kcat of plasminogen activation in the presence of fibrin [4] of 0.11 s⁻¹. For the same protein, the Kcat/Km of plasminogen activation in the absence of a cofactor [4] was 16000 M⁻¹ s⁻¹, the Kcat/Km of plasminogen activation in the presence of fibrin [4] was 4.6e+06 M⁻¹ s⁻¹ and the Km of plasminogen activation in the absence of a cofactor [4] was 6.8 µM. The Km of plasminogen activation in the presence of fibrin [4] was 0.024 µM.

B6: t-PA/H417E, two-chain form (protein)
chain 1: SYQVICRDEKTQMIYQQHQSWLRPVLRSNRVEYCWCNSGRAQCHSVPVKSCSEPRCFNGGTCQQALYFSDFVCQCPEGFAGKCCEIDTRATCYEDQGISYRGTWSTAESGAECTNWNSSALAQKPYSGRRPDAIRLGLGNHNYCRNPDRDSKPWCYVFKAGKYSSEFCSTPACSEGNSDCYFGNGSAYRGTHSLTESGASCLPWNSMILIGKVYTAQNPSAQALGLGKHNYCRNPDGDAKPWCHVLKNRRLTWEYCDVPSCSTCGLRQYSQPQFR
chain 2: IKGGLFADIASHPWQAAIFAKHRRSPGERFLCGGILISSCWILSAAHCFQERFPPHHLTVILGRTYRVVPGEEEQKFEVEKYIVHKEFDDDTYDNDIALLQLKSDSSRCAQESSVVRTVCLPPADLQLPDWTECELSGYGKEEALSPFYSERLKEAHVRLYPSSRCTSQHLLNRTVTDNMLCAGDTRSGGPQANLHDACQGDSGGPLVCLNDGRMTLVGIISWGLGCGQKDVPGVYTKVTNYLDWIRDNMRP
Protein B6 has a Fold stimulation of kcat/Km by fibrin [2] of 410 fold, a Kcat of plasminogen activation in the absence of a cofactor [4] of 0.099 s⁻¹ and a Kcat of plasminogen activation in the presence of fibrin [4] of 0.1 s⁻¹. For the same protein, the Kcat/Km of plasminogen activation in the absence of a cofactor [4] was 11000 M⁻¹ s⁻¹, the Kcat/Km of plasminogen activation in the presence of fibrin [4] was 4.5e+06 M⁻¹ s⁻¹ and the Km of plasminogen activation in the absence of a cofactor [4] was 8.7 µM. For the same protein, the Km of plasminogen activation in the presence of fibrin [4] was 0.022 µM.
